The text below walks through data of IntAct's records for PubMed 29039417.

B1: BBSome complex member BBS1 (Homo sapiens), Q8NFJ9 (parent)
chain: MAAASSSDSDACGAESNEANSKWLDAHYDPMANIHTFSACLALADLHGDGEYKLVVGDLGPGGQQPRLKVLKGPLVMTESPLPALPAAAATFLMEQHEPRTPALALASGPCVYVYKNLRPYFKFSLPQLPPNPLEQDLWNQAKEDRIDPLTLKEMLESIRETAEEPLSIQSLRFLQLELSEMEAFVNQHKSNSIKRQTVITTMTTLKKNLADEDAVSCLVLGTENKELLVLDPEAFTILAKMSLPSVPVFLEVSGQFDVEFRLAAACRNGNIYILRRDSKHPKYCIELSAQPVGLIRVHKVLVVGSTQDSLHGFTHKGKKLWTVQMPAAILTMNLLEQHSRGLQAVMAGLANGEVRIYRDKALLNVIHTPDAVTSLCFGRYGREDNTLIMTTRGGGLIIKILKRTAVFVEGGSEVGPPPAQAMKLNVPRKTRLYVDQTLREREAGTAMHRAFQTDLYLLRLRAARAYLQALESSLSPLSTTAREPLKLHAVVQGLGPTFKLTLHLQNTSTTRPVLGLLVCFLYNEALYSLPRAFFKVPLLVPGLNYPLETFVESLSNKGISDIIKVLVLREGQSAPLLSAHVNMPGSEGLAAA
partner: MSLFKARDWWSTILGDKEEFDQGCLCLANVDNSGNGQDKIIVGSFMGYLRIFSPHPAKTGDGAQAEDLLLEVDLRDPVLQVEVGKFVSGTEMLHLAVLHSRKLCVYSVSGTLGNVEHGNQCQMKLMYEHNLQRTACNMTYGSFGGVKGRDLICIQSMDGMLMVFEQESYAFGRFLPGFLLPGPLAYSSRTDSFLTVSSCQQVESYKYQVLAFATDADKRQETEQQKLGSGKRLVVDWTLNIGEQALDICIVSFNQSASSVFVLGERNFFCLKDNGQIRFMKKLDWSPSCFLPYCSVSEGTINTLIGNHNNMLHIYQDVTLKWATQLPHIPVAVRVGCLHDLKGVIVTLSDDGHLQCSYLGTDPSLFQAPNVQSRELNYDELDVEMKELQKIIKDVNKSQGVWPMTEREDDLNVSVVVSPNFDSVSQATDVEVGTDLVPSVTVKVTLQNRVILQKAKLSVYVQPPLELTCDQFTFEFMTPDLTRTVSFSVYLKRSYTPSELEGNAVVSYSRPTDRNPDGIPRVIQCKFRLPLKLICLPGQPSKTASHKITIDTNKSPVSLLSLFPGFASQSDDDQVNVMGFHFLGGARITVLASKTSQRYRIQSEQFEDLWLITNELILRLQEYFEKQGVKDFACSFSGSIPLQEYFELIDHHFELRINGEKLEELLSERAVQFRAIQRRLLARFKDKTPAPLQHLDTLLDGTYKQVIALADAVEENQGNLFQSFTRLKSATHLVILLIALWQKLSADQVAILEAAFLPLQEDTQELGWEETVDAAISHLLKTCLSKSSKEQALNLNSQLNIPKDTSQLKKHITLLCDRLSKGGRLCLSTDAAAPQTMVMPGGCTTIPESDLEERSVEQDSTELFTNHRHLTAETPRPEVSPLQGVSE

The first experiment covers variants of B1. The following applies: with pthb1_human BBS9, Q3SYG4.
For the variant F534A, the “effect of a mutation on the interaction” value is recorded as “with no effect”.
As to F534E, the “effect of a mutation on the interaction” value is “with no effect”.
Same read-out and setting: as for F534K, the entry is “with no effect”; as for S561K, “with no effect”.
Same read-out and setting: the value for S561E was “with no effect”; that for S561A was “with no effect”; that for P531A was “with no effect”.
Turning to P531E, the “effect of a mutation on the interaction” value is “with no effect”.
P531K: the “effect of a mutation on the interaction” value was “with no effect”.
As for L544A, the “effect of a mutation on the interaction” value is “with no effect”.
As for L544K, the “effect of a mutation on the interaction” value is “with no effect”.
Same read-out and setting: as for L544E, the entry is “with no effect”.
On the same count and under the same terms, the value for V541E was “with no effect”; that for V541K was “with no effect”.
V541A: the “effect of a mutation on the interaction” value is on record as “with no effect”.
Still for that read-out and setting: the value for V568K was “disrupting interaction strength”; that for V568A was “disrupting interaction strength”.
Still for that read-out and setting: as for V568E, the entry is “disrupting interaction strength”; as for S529A, “with no effect”.
Turning to S529E, the “effect of a mutation on the interaction” value is recorded as “with no effect”.
Take S529K: the “effect of a mutation on the interaction” value is recorded as “with no effect”.
R532E: the “effect of a mutation on the interaction” value was “with no effect”.
Turning to R532K, the “effect of a mutation on the interaction” value was “with no effect”.
As for R532A, the “effect of a mutation on the interaction” value was “with no effect”.
Regarding I564E, the “effect of a mutation on the interaction” value is on record as “disrupting interaction strength”.
The same measure, in the same setting: as for I564K, the entry is “disrupting interaction strength”.
For the variant I564A, the “effect of a mutation on the interaction” value is “disrupting interaction strength”.
For G543K, the “effect of a mutation on the interaction” value is “with no effect”.
For G543E, the “effect of a mutation on the interaction” value is reported as “with no effect”.
As to G543A, the “effect of a mutation on the interaction” value is “with no effect”.
P542K: the “effect of a mutation on the interaction” value is “disrupting interaction strength”.
On the same count and under the same terms, as for P542A, the entry is “with no effect”; as for P542E, “with no effect”; as for V537E, “disrupting interaction strength”.
For the variant V537A, the “effect of a mutation on the interaction” value was “with no effect”.
For V537K, the “effect of a mutation on the interaction” value is recorded as “disrupting interaction strength”.
Consider E553A, for which the “effect of a mutation on the interaction” value was “with no effect”.
As to E553K, the “effect of a mutation on the interaction” value is “with no effect”.
As to S556K, the “effect of a mutation on the interaction” value is listed as “with no effect”.
The same measure, in the same setting: as for S556A, the entry is “with no effect”; as for S556E, “with no effect”.
On the same count and under the same terms, as for A526E, the entry is “with no effect”; as for A526K, “with no effect”.
Still for that read-out and setting: the value for E525A was “with no effect”.
For E525K, the “effect of a mutation on the interaction” value is recorded as “with no effect”.
For the variant N545K, the “effect of a mutation on the interaction” value is on record as “with no effect”.
As for N545E, the “effect of a mutation on the interaction” value was “with no effect”.
Turning to N545A, the “effect of a mutation on the interaction” value was “with no effect”.
As to T550A, the “effect of a mutation on the interaction” value was “with no effect”.
With T550E, the “effect of a mutation on the interaction” value was “with no effect”.
Regarding T550K, the “effect of a mutation on the interaction” value is recorded as “with no effect”.
Take Y546E: the “effect of a mutation on the interaction” value is on record as “disrupting interaction strength”.
As to Y546K, the “effect of a mutation on the interaction” value is listed as “with no effect”.
Y546A: the “effect of a mutation on the interaction” value is “with no effect”.
For N557A, the “effect of a mutation on the interaction” value is on record as “with no effect”.
Still for that read-out and setting: as for N557E, the entry is “with no effect”.
Regarding N557K, the “effect of a mutation on the interaction” value was “with no effect”.
K536E: the “effect of a mutation on the interaction” value is “with no effect”.
Consider K536A, for which the “effect of a mutation on the interaction” value is recorded as “with no effect”.
On the same count and under the same terms, as for A575E, the entry is “with no effect”.
As to A575K, the “effect of a mutation on the interaction” value is “with no effect”.
Same read-out and setting: the value for L540A was “with no effect”; that for L540K was “disrupting interaction strength”.
Still for that read-out and setting: the value for L540E was “disrupting interaction strength”; that for E571A was “with no effect”.
Same read-out and setting: the value for E571K was “with no effect”; that for D562E was “with no effect”; that for D562K was “with no effect”.
Turning to D562A, the “effect of a mutation on the interaction” value is recorded as “with no effect”.
Still for that read-out and setting: the value for R570E was “with no effect”.
Turning to R570K, the “effect of a mutation on the interaction” value is listed as “with no effect”.
As to R570A, the “effect of a mutation on the interaction” value was “with no effect”.
Regarding P547A, the “effect of a mutation on the interaction” value is on record as “with no effect”.
On the same count and under the same terms, as for P547E, the entry is “with no effect”.
The same measure, in the same setting: as for P547K, the entry is “with no effect”; as for I560E, “with no effect”; as for I560K, “with no effect”.
I560A: the “effect of a mutation on the interaction” value is “with no effect”.
The same measure, in the same setting: the value for P538L was “disrupting interaction strength”.
P538A: the “effect of a mutation on the interaction” value is given as “with no effect”.
On the same count and under the same terms, the value for P538E was “with no effect”.

The variants in the next experiment derive from B1. To be noted: with pthb1_human BBS9, Q3SYG4. The source holds these as a separate data set.
Consider I564A, for which the “effect of a mutation on the interaction” value is “with no effect”.
Turning to Y546K, the “effect of a mutation on the interaction” value was “disrupting interaction strength”.
